# Assay results taken from IntAct's records for PubMed 31515488.
# B1: Protein-lysine methyltransferase METTL21C (Homo sapiens), Q5VZV1 (parent)
# chain: MDVCLSSAQQPGRRGEGLSSPGGWLEAEKKGAPQKDSTGGVLEESNKIEPSLHSLQKFVPTDYASYTQEHYRFAGKEIVIQESIESYGAVVWPGAMALCQYLEEHAEELNFQDAKILEIGAGPGLVSIVASILGAQVTATDLPDVLGNLQYNLLKNTLQCTAHLPEVKELVWGEDLDKNFPKSAFYYDYVLASDVVYHHYFLDKLLTTMVYLSQPGTVLLWANKFRFSTDYEFLDKFKQVFDTTLLAEYPESSVKLFKGILKWD
# B2: Protein LDOC1 (Homo sapiens), O95751 (parent)
# chain: MVDELVLLLHALLMRHRALSIENSQLMEQLRLLVCERASLLRQVRPPSCPVPFPETFNGESSRLPEFIVQTASYMLVNENRFCNDAMKVAFLISLLTGEAEEWVVPYIEMDSPILGDYRAFLDEMKQCFGWDDDEDDDDEEEEDDY
# partner: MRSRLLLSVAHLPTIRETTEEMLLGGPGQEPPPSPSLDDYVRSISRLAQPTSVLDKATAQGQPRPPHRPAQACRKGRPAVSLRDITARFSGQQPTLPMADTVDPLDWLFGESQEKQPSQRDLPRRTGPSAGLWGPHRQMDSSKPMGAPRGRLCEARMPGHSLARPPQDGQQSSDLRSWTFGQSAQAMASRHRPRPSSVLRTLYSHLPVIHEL
# B3: Plakophilin-2 (Homo sapiens), Q99959 (parent)
# chain: MAAPGAPAEYGYIRTVLGQQILGQLDSSSLALPSEAKLKLAGSSGRGGQTVKSLRIQEQVQQTLARKGRSSVGNGNLHRTSSVPEYVYNLHLVENDFVGGRSPVPKTYDMLKAGTTATYEGRWGRGTAQYSSQKSVEERSLRHPLRRLEISPDSSPERAHYTHSDYQYSQRSQAGHTLHHQESRRAALLVPPRYARSEIVGVSRAGTTSRQRHFDTYHRQYQHGSVSDTVFDSIPANPALLTYPRPGTSRSMGNLLEKENYLTAGLTVGQVRPLVPLQPVTQNRASRSSWHQSSFHSTRTLREAGPSVAVDSSGRRAHLTVGQAAAGGSGNLLTERSTFTDSQLGNADMEMTLERAVSMLEADHMLPSRISAAATFIQHECFQKSEARKRVNQLRGILKLLQLLKVQNEDVQRAVCGALRNLVFEDNDNKLEVAELNGVPRLLQVLKQTRDLETKKQITDHTVNLRSRNGWPGAVAHACNPSTLGGQGGRITRSGVRDQPDQHGLLWNLSSNDKLKNLMITEALLTLTENIIIPFSGWPEGDYPKANGLLDFDIFYNVTGCLRNMSSAGADGRKAMRRCDGLIDSLVHYVRGTIADYQPDDKATENCVCILHNLSYQLEAELPEKYSQNIYIQNRNIQTDNNKSIGCFGSRSRKVKEQYQDVPMPEEKSNPKGVEWLWHSIVIRMYLSLIAKSVRNYTQEASLGALQNLTAGSGPMPTSVAQTVVQKESGLQHTRKMLHVGDPSVKKTAISLLRNLSRNLSLQNEIAKETLPDLVSIIPDTVPSTDLLIETTASACYTLNNIIQNSYQNARDLLNTGGIQKIMAISAGDAYASNKASKAASVLLYSLWAHTELHHAYKKAQFKKTDFVNSRTAKAYHSLKD
# B4: Ribonuclease inhibitor (Homo sapiens), P13489 (parent)
# chain: MSLDIQSLDIQCEELSDARWAELLPLLQQCQVVRLDDCGLTEARCKDISSALRVNPALAELNLRSNELGDVGVHCVLQGLQTPSCKIQKLSLQNCCLTGAGCGVLSSTLRTLPTLQELHLSDNLLGDAGLQLLCEGLLDPQCRLEKLQLEYCSLSAASCEPLASVLRAKPDFKELTVSNNDINEAGVRVLCQGLKDSPCQLEALKLESCGVTSDNCRDLCGIVASKASLRELALGSNKLGDVGMAELCPGLLHPSSRLRTLWIWECGITAKGCGDLCRVLRAKESLKELSLAGNELGDEGARLLCETLLEPGCQLESLWVKSCSFTAACCSHFSSVLAQNRFLLELQISNNRLEDAGVRELCQGLGQPGSVLRVLWLADCDVSDSSCSSLAATLLANHSLRELDLSNNCLGDAGILQLVESVRQPGCLLEQLVLYDIYWSEEMEDRLQALEKDKPSLRVIS
# B5: LHFPL tetraspan subfamily member 5 protein (Homo sapiens), Q8TAF8 (parent)
# chain: MVKLLPAQEAAKIYHTNYVRNSRAVGVMWGTLTICFSVLVMALFIQPYWIGDSVNTPQAGYFGLFSYCVGNVLSSELICKGGPLDFSSIPSRAFKTAMFFVALGMFLIIGSIICFSLFFICNTATVYKICAWMQLAAATGLMIGCLVYPDGWDSSEVRRMCGEQTGKYTLGHCTIRWAFMLAILSIGDALILSFLAFVLGYRQDKLLPDDYKADGTEEV
# B6: DCC-interacting protein 13-alpha (Homo sapiens), Q9UKG1 (parent)
# chain: MPGIDKLPIEETLEDSPQTRSLLGVFEEDATAISNYMNQLYQAMHRIYDAQNELSAATHLTSKLLKEYEKQRFPLGGDDEVMSSTLQQFSKVIDELSSCHAVLSTQLADAMMFPITQFKERDLKEILTLKEVFQIASNDHDAAINRYSRLSKKRENDKVKYEVTEDVYTSRKKQHQTMMHYFCALNTLQYKKKIALLEPLLGYMQAQISFFKMGSENLNEQLEEFLANIGTSVQNVRREMDSDIETMQQTIEDLEVASDPLYVPDPDPTKFPVNRNLTRKAGYLNARNKTGLVSSTWDRQFYFTQGGNLMSQARGDVAGGLAMDIDNCSVMAVDCEDRRYCFQITSFDGKKSSILQAESKKDHEEWICTINNISKQIYLSENPEETAARVNQSALEAVTPSPSFQQRHESLRPAAGQSRPPTARTSSSGSLGSESTNLAALSLDSLVAPDTPIQFDIISPVCEDQPGQAKAFGQGGRRTNPFGESGGSTKSETEDSILHQLFIVRFLGSMEVKSDDHPDVVYETMRQILAARAIHNIFRMTESHLLVTCDCLKLIDPQTQVTRLTFPLPCVVLYATHQENKRLFGFVLRTSSGRSESNLSSVCYIFESNNEGEKICDSVGLAKQIALHAELDRRASEKQKEIERVKEKQQKELNKQKQIEKDLEEQSRLIAASSRPNQASSEGQFVVLSSSQSEESDLGEGGKKRESEA
# partner: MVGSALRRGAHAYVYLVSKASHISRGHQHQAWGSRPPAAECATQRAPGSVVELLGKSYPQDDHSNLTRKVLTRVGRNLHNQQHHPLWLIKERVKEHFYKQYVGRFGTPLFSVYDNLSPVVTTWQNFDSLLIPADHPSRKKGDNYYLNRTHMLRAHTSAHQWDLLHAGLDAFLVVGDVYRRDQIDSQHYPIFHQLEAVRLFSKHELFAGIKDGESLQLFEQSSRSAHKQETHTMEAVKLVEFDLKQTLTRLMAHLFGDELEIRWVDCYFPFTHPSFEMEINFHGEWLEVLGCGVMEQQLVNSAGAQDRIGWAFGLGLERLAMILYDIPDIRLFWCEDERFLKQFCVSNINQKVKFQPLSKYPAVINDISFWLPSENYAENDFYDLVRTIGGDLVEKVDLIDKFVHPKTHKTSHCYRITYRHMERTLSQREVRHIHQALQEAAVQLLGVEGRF
# B7: Protein LDOC1 (Homo sapiens), O95751 (parent)
# chain: B2 chain
# partner: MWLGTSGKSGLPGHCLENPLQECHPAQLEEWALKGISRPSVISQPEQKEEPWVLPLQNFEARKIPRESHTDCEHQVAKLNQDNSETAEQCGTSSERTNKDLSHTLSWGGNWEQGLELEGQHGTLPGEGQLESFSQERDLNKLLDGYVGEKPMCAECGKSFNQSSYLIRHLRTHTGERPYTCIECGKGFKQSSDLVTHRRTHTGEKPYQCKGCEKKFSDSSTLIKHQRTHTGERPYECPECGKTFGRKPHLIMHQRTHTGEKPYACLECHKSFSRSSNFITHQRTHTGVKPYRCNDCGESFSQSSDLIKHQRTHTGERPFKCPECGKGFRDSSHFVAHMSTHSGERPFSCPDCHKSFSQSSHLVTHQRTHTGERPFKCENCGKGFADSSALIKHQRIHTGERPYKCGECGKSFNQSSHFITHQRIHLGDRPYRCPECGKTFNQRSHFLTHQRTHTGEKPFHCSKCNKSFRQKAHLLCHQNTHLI
# B8: EKC/KEOPS complex subunit TP53RK (Homo sapiens), Q96S44 (parent)
# chain: MAAARATTPADGEEPAPEAEALAAARERSSRFLSGLELVKQGAEARVFRGRFQGRAAVIKHRFPKGYRHPALEARLGRRRTVQEARALLRCRRAGISAPVVFFVDYASNCLYMEEIEGSVTVRDYIQSTMETEKTPQGLSNLAKTIGQVLARMHDEDLIHGDLTTSNMLLKPPLEQLNIVLIDFGLSFISALPEDKGVDLYVLEKAFLSTHPNTETVFEAFLKSYSTSSKKARPVLKKLDEVRLRGRKRSMVG
# Variants of: B1
# Settings: with eloc_human ELOC
row,effect of a mutation on the interaction,Variant
1,with no effect,G15R

# Variants of: B2
# Settings: with depp1_human DEPP1, Q9NTK1
row,effect of a mutation on the interaction,Variant
1,disrupting interaction strength,L12H

# Variants of: B3
# Settings: with mtus2_human MTUS2, Q5JR59
# Sequence of mtus2_human MTUS2, Q5JR59 (Q5JR59 whole entry): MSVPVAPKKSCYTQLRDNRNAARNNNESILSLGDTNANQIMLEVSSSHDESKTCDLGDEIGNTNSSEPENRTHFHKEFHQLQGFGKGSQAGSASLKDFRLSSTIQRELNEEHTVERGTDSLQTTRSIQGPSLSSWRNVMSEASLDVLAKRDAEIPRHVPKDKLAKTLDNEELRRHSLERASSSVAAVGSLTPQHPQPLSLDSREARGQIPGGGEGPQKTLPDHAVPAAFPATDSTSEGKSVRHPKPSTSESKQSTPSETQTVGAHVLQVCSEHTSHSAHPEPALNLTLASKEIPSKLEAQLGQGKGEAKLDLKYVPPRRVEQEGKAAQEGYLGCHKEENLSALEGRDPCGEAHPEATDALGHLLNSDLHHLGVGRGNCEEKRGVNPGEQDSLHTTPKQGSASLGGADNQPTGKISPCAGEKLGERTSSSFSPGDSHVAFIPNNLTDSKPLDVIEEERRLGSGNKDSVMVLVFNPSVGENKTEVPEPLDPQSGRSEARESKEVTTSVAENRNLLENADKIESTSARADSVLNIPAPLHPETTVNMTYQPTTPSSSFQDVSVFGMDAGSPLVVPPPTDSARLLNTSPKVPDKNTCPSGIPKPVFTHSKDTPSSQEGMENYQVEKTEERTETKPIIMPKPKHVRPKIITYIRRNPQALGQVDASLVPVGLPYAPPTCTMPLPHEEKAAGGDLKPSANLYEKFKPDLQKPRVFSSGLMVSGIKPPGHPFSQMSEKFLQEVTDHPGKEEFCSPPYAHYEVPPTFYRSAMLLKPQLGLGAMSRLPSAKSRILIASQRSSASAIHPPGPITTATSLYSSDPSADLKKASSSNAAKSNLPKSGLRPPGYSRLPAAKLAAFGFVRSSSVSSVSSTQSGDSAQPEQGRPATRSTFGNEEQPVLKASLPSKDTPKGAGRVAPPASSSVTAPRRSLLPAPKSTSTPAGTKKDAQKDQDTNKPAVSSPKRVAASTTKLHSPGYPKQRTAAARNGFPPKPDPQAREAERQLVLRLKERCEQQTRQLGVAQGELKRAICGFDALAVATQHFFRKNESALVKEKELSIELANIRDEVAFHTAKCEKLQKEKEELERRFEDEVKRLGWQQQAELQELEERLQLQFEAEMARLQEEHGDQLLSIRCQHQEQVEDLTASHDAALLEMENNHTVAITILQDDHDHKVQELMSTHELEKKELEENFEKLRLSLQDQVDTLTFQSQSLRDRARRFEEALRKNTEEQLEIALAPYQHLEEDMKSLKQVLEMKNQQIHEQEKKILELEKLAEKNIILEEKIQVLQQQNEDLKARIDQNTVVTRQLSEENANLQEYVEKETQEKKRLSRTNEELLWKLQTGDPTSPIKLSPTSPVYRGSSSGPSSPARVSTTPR
row,effect of a mutation on the interaction,Variant
1,with no effect,E58D
2,with no effect,L366P
3,with no effect,A264V

# Variants of: B4
# Settings: with sdcb1_human SDCBP
row,effect of a mutation on the interaction,Variant
1,disrupting interaction strength,R110C

# Variants of: B5
# Settings: with BCL2L13, Q9BXK5
# Sequence of BCL2L13, Q9BXK5 (Q9BXK5 whole entry): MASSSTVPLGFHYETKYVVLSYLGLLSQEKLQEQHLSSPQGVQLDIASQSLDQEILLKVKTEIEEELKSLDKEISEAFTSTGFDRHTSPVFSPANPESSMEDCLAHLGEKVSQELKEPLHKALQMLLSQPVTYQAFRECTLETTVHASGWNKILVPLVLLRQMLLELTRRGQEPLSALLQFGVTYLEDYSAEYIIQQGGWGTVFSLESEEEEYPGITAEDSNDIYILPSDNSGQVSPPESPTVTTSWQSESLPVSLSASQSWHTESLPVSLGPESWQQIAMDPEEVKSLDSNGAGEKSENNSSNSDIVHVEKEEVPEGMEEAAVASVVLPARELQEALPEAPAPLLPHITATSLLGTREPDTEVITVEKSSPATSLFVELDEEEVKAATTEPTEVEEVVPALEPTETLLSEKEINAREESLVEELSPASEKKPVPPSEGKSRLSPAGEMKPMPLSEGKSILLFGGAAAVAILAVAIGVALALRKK
row,effect of a mutation on the interaction,Variant
1,with no effect,K205N

# Variants of: B6
# Settings: with syfm_human FARS2, O95363
row,effect of a mutation on the interaction,Variant
1,with no effect,E643Q
2,with no effect,E67G

# Variants of: B7
# Settings: with zn774_human ZNF774, Q6NX45
row,effect of a mutation on the interaction,Variant
1,disrupting interaction strength,L12H

# Variants of: B8
# Settings: with ccdb1_human CCNDBP1, O95273
# Sequence of ccdb1_human CCNDBP1, O95273 (O95273 whole entry): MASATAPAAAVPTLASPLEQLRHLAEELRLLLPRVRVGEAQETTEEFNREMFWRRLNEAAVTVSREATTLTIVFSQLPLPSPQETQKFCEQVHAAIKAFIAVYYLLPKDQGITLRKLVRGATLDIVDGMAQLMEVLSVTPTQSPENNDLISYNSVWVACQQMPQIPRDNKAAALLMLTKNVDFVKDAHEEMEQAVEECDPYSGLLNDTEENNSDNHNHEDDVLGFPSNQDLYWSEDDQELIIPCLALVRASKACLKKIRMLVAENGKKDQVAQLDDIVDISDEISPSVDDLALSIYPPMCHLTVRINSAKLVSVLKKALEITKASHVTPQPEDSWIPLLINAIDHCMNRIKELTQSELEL
row,effect of a mutation on the interaction,Variant
1,disrupting interaction strength,R123Q
